{"source": "patent US8501695B2", "about": "“Tissue kallikrein for the treatment of diseases associated with amyloid protein” (DiaMedica, Inc., priority 2007, dated 2013)", "molecules": {"B1": {"name": "tissue kallikrein: serine protease that cleaves kininogen into kallidin; polypeptide SEQ ID NO:1 (Sus scrofa kallikrein 1), KLK1 from Sigma (protein, listed as Sus scrofa)", "chain": "MWSLVMRLALSLAGTGAAPPIQSRIIGGRECEKDSHPWQVAIYHYSSFQCGGVLVDPKWVLTAAHCKNDNYQVWLGRHNLFENEVTAQFFGVTADFPHPGFNLSLLKNHTKADGKDYSHDLMLLRLQSPAKITDAVKVLELPTQEPELGSTCQASGWGSIEPGPDDFEFPDEIQCVELTLLQNTFCADAHPDKVTESMLCAGYLPGGKDTCMGDSGGPLICNGMWQGITSWGHTPCGSANKPSIYTKLIFYLDWINDTITENP", "modifications": "125I label in one form"}}, "experiment": "Pharmacokinetic study of intranasal tissue kallikrein (125I-KLK1 tissue concentrations by gamma counting)", "type": "in vivo", "details": "rat", "method": "The purpose of this study was to quantify the amount of tissue kallikrein (KLK1) reaching the central nervous system and peripheral tissues after intranasal administration to anesthetized rats. At 30 min after KLK1 administration, animals were transcardially perfused with ice-cold saline followed by paraformaldehyde fixative and tissues were dissected. The amount of radiolabeled KLK1 in each tissue sample was quantified by gamma counting and tissue concentrations were calculated using tissue weight and gamma counting of standards of the dosing solutions\nAdult male Sprague Dawley rats (n=10, mean 335.4 g±4.57 g SE) were used for this study. Animals were group housed in the Regions Hospital Animal Care Facility with free access to food and water. Animals were kept on a 12 h light cycle. All experimental procedures were approved by the Animal Care and Use Committee at Regions Hospital under IACUC protocol number 08-022.\nTissue kallikrein was sent to Perkin-Elmer for ^125I-labelling (Quote NEX-084, lot C1541583). Non-labeled KLK1 from Sigma (cat#K3627-1KU, lot 018K1441) was also used. Non-labeled KLK1 was dissolved in 1×PBS (10×PBS, Sigma, cat #P5493, lot 027K8405 diluted in sterile water). The average dose was 48.1 μL, 75 μCi, and 2.6 mg.\n• a. Prior to anesthesia, each rat was weighed. • b. An anesthesia cocktail was prepared and full, half, and quarter anesthesia doses were calculated according to the animal's weight with a full dose containing 30 mg/kg ketamine, 6 mg/kg xylazine, and 1 mg/kg acepromazine. • c. A 1-cc syringe fitted with a 25 G or 27 G, ½ inch needle was assembled and a full dose was drawn into the syringe for injection. • d. Rats were restrained in a towel as follows. Rats were placed ventral side down in the middle of a hand towel. The towel was then wrapped around the head and shoulders to restrain. Wrapped animals remained ventral side down while the left hind leg was located. • e. The left hind leg was drawn to the side and the needle was inserted just beneath the skin (subcutaneous) above the thigh. After ensuring that the needle was placed subcutaneously (and not intramuscularly), full doses were injected. Rats were placed in holding cages and the injection time noted. Animals should be under within 5 min. • f. Anesthesia was monitored throughout the procedures by assessing reflexes using pinching of the hind paw or tail. If a reflex was present, a half or quarter dose booster was administered as necessary. • g. During drug administration, animals received a half dose booster roughly 20-25 min after initial dose. Intranasal Delivery of ^125I-KLK1 • a. Anesthetized rats were placed on their backs on a heating pad in a metal surgical tray. The heating pad was connected to a thermostat and was automatically regulated to maintain a 37° C. temperature based on continuous measurement from a rectal probe. • b. A 2″×2″ gauze pad was rolled tightly into a pillow, taped together, and under the neck to maintain a correct neck position horizontal with the counter. • c. A lead impregnated shield was placed between the surgical tray and the experimenter for protection against radiation. The dose solution, pipette, pipette tips, and waste receptacle were arranged behind the shield for easy access. • d. A 6 μL drop was loaded into the pipette behind the shield. • e. A cotton swab covered in parafilm was used to occlude one naris completely (the flat part of the swab was pushed gently against the naris to prevent airflow), while the 6 μL drop was expelled slowly from the pipette (held at a 45° angle from the rat's midline), forming a drop on the pipette tip. The drop was lowered onto the open naris to be inhaled. • f. After two minutes, the alternate naris was occluded and a 6 μL drop was administered in the same fashion. • g. A drop was administered as described above every two minutes to alternating nares until a total of 8 drops was delivered (4 to each naris) over 14 min. • h. […]", "key": {"[1]": {"details": "30 min. end point, Avg, outliers removed"}}}
{"molecule": "B1", "values": [{"measurement": "reaching target regions (frontal cortex, temporal cortex, hippocampus, cerebral blood vessel walls, cervical nodes)", "setting": "30 min", "value": "effectively reached target regions"}, {"measurement": "concentration in Amygdala", "setting": "[1]", "value": 16.2, "unit": "nM"}, {"measurement": "concentration in Anterior Olfactory Nucleus", "setting": "[1]", "value": 26.8, "unit": "nM"}, {"measurement": "concentration in Anterior Trigeminal Nerve", "setting": "[1]", "value": 109.1, "unit": "nM"}, {"measurement": "concentration in Axillary Nodes (2)", "setting": "[1]", "value": 42.3, "unit": "nM"}, {"measurement": "concentration in Blood Sample", "setting": "[1]", "value": 268.4, "unit": "nM"}, {"measurement": "concentration in Carotid Artery", "setting": "[1]", "value": 113.4, "unit": "nM"}, {"measurement": "concentration in Cerebellum", "setting": "[1]", "value": 10.9, "unit": "nM"}, {"measurement": "concentration in Cervical Nodes (2)", "setting": "[1]", "value": 122.3, "unit": "nM"}, {"measurement": "concentration in Circle of Willis & Basilar Artery", "setting": "[1]", "value": 103.3, "unit": "nM"}, {"measurement": "concentration in Dorsal Dura", "setting": "[1]", "value": 132.9, "unit": "nM"}, {"measurement": "concentration in Esophagus", "setting": "[1]", "value": 85.2, "unit": "nM"}, {"measurement": "concentration in Extra Cortex", "setting": "[1]", "value": 13.0, "unit": "nM"}, {"measurement": "concentration in Extra Slice #1", "setting": "[1]", "value": 23.6, "unit": "nM"}, {"measurement": "concentration in Extra Slice #2", "setting": "[1]", "value": 16.7, "unit": "nM"}, {"measurement": "concentration in Extra Slice #3", "setting": "[1]", "value": 13.9, "unit": "nM"}, {"measurement": "concentration in Extra Slice #4", "setting": "[1]", "value": 12.0, "unit": "nM"}, {"measurement": "concentration in Extra Slice #5", "setting": "[1]", "value": 11.8, "unit": "nM"}, {"measurement": "concentration in Extra Slice #6", "setting": "[1]", "value": 11.3, "unit": "nM"}, {"measurement": "concentration in Frontal Cortex", "setting": "[1]", "value": 23.9, "unit": "nM"}, {"measurement": "concentration in Heart", "setting": "[1]", "value": 22.6, "unit": "nM"}, {"measurement": "concentration in Hippocampus", "setting": "[1]", "value": 10.7, "unit": "nM"}, {"measurement": "concentration in Hypothalamus", "setting": "[1]", "value": 22.2, "unit": "nM"}, {"measurement": "concentration in Kidney (L, tip)", "setting": "[1]", "value": 134.8, "unit": "nM"}, {"measurement": "concentration in Liver (R, superficial lobe)", "setting": "[1]", "value": 25.7, "unit": "nM"}, {"measurement": "concentration in Lower Cervical Spinal Cord", "setting": "[1]", "value": 7.1, "unit": "nM"}, {"measurement": "concentration in Lumbar Spinal Cord", "setting": "[1]", "value": 4.9, "unit": "nM"}, {"measurement": "concentration in Lung (R, top lobe)", "setting": "[1]", "value": 37.2, "unit": "nM"}, {"measurement": "concentration in Medulla", "setting": "[1]", "value": 14.9, "unit": "nM"}, {"measurement": "concentration in Midbrain", "setting": "[1]", "value": 12.5, "unit": "nM"}, {"measurement": "concentration in Muscle (R, deltoid)", "setting": "[1]", "value": 21.4, "unit": "nM"}, {"measurement": "concentration in Occipital Cortex", "setting": "[1]", "value": 12.8, "unit": "nM"}, {"measurement": "concentration in Olfactory Bulbs", "setting": "[1]", "value": 107.1, "unit": "nM"}, {"measurement": "concentration in Olfactory Epithelium", "setting": "[1]", "value": "24,762.6 nM"}, {"measurement": "concentration in Optic Chiasm", "setting": "[1]", "value": 29.4, "unit": "nM"}, {"measurement": "concentration in Parietal Cortex", "setting": "[1]", "value": 12.1, "unit": "nM"}, {"measurement": "concentration in Pituitary", "setting": "[1]", "value": 60.1, "unit": "nM"}, {"measurement": "concentration in Pons", "setting": "[1]", "value": 14.4, "unit": "nM"}, {"measurement": "concentration in Posterior Trigeminal Nerve", "setting": "[1]", "value": 51.8, "unit": "nM"}, {"measurement": "concentration in Renal artery (L)", "setting": "[1]", "value": 58.1, "unit": "nM"}, {"measurement": "concentration in Respiratory Epithelium", "setting": "[1]", "value": "75,970.0 nM"}, {"measurement": "concentration in Septal Nucleus", "setting": "[1]", "value": 12.1, "unit": "nM"}, {"measurement": "concentration in Spinal Dura", "setting": "[1]", "value": 26.6, "unit": "nM"}, {"measurement": "concentration in Spleen (tip)", "setting": "[1]", "value": 72.6, "unit": "nM"}, {"measurement": "concentration in Striatum", "setting": "[1]", "value": 9.8, "unit": "nM"}, {"measurement": "concentration in Superficial Nodes (2)", "setting": "[1]", "value": 63.1, "unit": "nM"}, {"measurement": "concentration in Temporal Cortex", "setting": "[1]", "value": 12.4, "unit": "nM"}, {"measurement": "concentration in Thalamus", "setting": "[1]", "value": 10.3, "unit": "nM"}, {"measurement": "concentration in Thoracic Spinal Cord", "setting": "[1]", "value": 5.2, "unit": "nM"}, {"measurement": "concentration in Thyroid", "setting": "[1]", "value": 1970.6, "unit": "nM"}, {"measurement": "concentration in Trachea", "setting": "[1]", "value": 77.7, "unit": "nM"}, {"measurement": "concentration in Upper Cervical Spinal Cord", "setting": "[1]", "value": 23.4, "unit": "nM"}, {"measurement": "concentration in Urine", "setting": "[1]", "value": 130.7, "unit": "nM"}]}
